T1: human DC-SIGN (human, UniProt Q9NNX6 62-404, limits assumed)
T1 construct: Coated on ELISA wells; also called CD209; DC-SIGN protein
T1 sequence: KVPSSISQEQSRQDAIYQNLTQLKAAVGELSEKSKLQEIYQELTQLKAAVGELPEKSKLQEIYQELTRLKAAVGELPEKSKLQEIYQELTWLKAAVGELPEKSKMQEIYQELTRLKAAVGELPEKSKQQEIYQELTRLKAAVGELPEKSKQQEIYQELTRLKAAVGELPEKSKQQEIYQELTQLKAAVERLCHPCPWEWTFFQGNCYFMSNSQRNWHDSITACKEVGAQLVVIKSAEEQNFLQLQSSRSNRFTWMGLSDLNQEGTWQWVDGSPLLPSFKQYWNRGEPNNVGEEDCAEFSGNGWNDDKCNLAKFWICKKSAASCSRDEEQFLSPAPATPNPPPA

T2: DC-SIGNR (Homo sapiens (Human), UniProt Q9H2X3 78-399, limits assumed)
T2 construct: Bought (R&D Cat nr 162-D2)
T2 sequence: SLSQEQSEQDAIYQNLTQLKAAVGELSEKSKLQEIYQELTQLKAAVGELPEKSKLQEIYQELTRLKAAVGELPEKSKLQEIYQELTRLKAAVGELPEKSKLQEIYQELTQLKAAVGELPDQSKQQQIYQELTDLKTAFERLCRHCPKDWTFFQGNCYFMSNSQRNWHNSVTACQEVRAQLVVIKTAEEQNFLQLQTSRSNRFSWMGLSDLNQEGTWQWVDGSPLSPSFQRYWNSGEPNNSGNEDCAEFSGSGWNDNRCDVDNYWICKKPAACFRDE

B1: LIP1-33 (other)
VH: EVQLLESGGGLVQPGGSLRLSCAASGFTFPSGTMGWVRQAPGKGLEWVSYIDPSGFMTYYADSVKGRFTISRDNSKNTLYLQMNSLRAEDTAVYYCAKSIVPRSGTFDYWGQGTLVTVSS
notes: Human VH domain antibody (dAb); also called LIP1-33 phage
B2: DC-SIGN peptide (9xHIS tag, linker and the C-terminal end of DC-SIGN) (peptide)
peptide: HHHHHHHHHSGSGKKSAASCSRDEEQFLSPAPATPNPPPA
notes: also called HIS tagged DC-SIGN peptide

Assays:
human DC-SIGN [1] = biological target: T1, human DC-SIGN; experiment: phage ELISA: DC-SIGN coated on the wells, serial dilutions of phage particles, detection with anti-M13 antibody-HRP and TMB, OD 450
Description: (§1) Phage particles from individual LIP1 clones were prepared, and serial dilutions of phage particles were tested in ELISA. The ELISA wells were coated overnight at 4° C. with DC SIGN (1-10 μg/ml in PBS or 0.1 M NaHCO₃ buffer, pH 9.6). After blocking the wells with PBS containing 2% skimmed-milk powder (PBSM), phage was incubated in PBSM for 1 hr. After washing with PBS, bound phage were detected using a conjugate of horseradish peroxidase with an anti-M13 monoclonal antibody (Amersham) using 3,3′,5,5′-tetramethylbenzidine as substrate.
as §1, with “For” for “Phage particles from individual LIP1 clones were prepared, and serial dilutions of”, “ELISA, the” for “particles were tested in ELISA. The”, “SIGN or DC SIGNR (R&D Cat nr 162-D2) at” for “SIGN”

human DC-SIGN [2] = biological target: T1, human DC-SIGN; experiment: phage ELISA
human DC-SIGN [3] = biological target: T1, human DC-SIGN; experiment: phage ELISA: DC-SIGN coated on the wells, serial dilutions of LIP1-33 phage, detection with anti-M13 antibody-HRP and TMB, OD450
Description: as §1, with “LIP1-33” for “individual LIP1 clones”, “DC SIGNR, neutravidin, DC” for “DC”, “SIGN or DC SIGN peptide” for “SIGN”, “substrate. HEL4 and VKdummy are non-binding negative controls.” for “substrate.”
as §1, with “For” for “Phage particles from individual LIP1 clones were prepared, and serial dilutions of”, “ELISA, the” for “particles were tested in ELISA. The”, “SIGN or DC SIGNR (R&D Cat nr 162-D2) at” for “SIGN”

DC-SIGNR = biological target: T2, DC-SIGNR; experiment: phage ELISA: DC-SIGNR coated on the wells, serial dilutions of LIP1-33 phage, detection with anti-M13 antibody-HRP and TMB, OD450
Description: as §1, with “LIP1-33” for “individual LIP1 clones”, “DC SIGNR, neutravidin, DC” for “DC”, “SIGN or DC SIGN peptide” for “SIGN”, “substrate. HEL4 and VKdummy are non-binding negative controls.” for “substrate.”
as §1, with “For” for “Phage particles from individual LIP1 clones were prepared, and serial dilutions of”, “ELISA, the” for “particles were tested in ELISA. The”, “SIGN or DC SIGNR (R&D Cat nr 162-D2) at” for “SIGN”

[4] = biological target: B2; experiment: phage ELISA: DC-SIGN peptide coated on the wells, serial dilutions of LIP1-33 phage, detection with anti-M13 antibody-HRP and TMB, OD450
Description: as §1, with “LIP1-33” for “individual LIP1 clones”, “DC SIGNR, neutravidin, DC” for “DC”, “SIGN or DC SIGN peptide” for “SIGN”, “substrate. HEL4 and VKdummy are non-binding negative controls.” for “substrate.”

LIP1-33 = biological target: B1; experiment: competition phage ELISA; HIS tagged peptide in solution as competitor (data not shown)

Row | Binder | binding result (human DC-SIGN [1]) | binding result (human DC-SIGN [2]) | other results
1 | 1-12 (other, human VK domain antibody, tested as phage particles; also called LIP1-12; LIP1-12 phage) VK dAb: DIQMTQSPSSLSASVGDRVTITCRASRPIGTNLYWYQQKPGKAPKLLIVGGSFLQSGVPSRFSGSGSGTDFTLTISSLQPEDFATYYCGQRARYPGTFGQGTKVEIKR | binds |  | 
2 | LIP1-25 (other) VH: EVQLLESGGGLVQPGGSLRLSCAASGFTFPDADMVWVRQAPGKGLEWVSSISDHGFNTYYADSVKGRFTISRDNSKNTLYLQMNSLRAEDTAVYYCAKSPLATFDYWGQGTLVTVSS |  | binds | 
3 | LIP1-28 (other) VH: EVQLLESGGGLVQPGGSLRLSCAASGFTFVATPMHWVRQAPGKGLEWVSAISGSGGSTYYADSVKGRFTISRDNSKNTLYLQMNSLRAEDTAVYYCAKGWDPSLERFDYWGQGTLVTVSS |  | binds | 
4 | 1-15 (other, human VK domain antibody, tested as phage particles; also called LIP1-15; LIP1-15 phage) VK dAb: DIQMTQSPSSLSASVGDRVTITCRASRAIGTYLAWYQQKPGKAPKLLILWGSVLQSGVPSRFSGSGSGTDFTLTISSLQPEDFATYYCAQLAQRPSTFGQGTKVEIKR | binds |  | 
5 | LIP1-27 (other) VH: EVQLLESGGGLVQPGGSLRLSCAASGFTFEQTDMHWARQAPGKGPEWVSSISPLGAFTYYADSVKGRFTISRDNSKNTLYLQMNSLRAEDTAVYYCAKSPLVRNNGQFDYWGQGTLVTVSS |  | binds | 
6 | LIP1-29 (other, all other claims print 34) VH: EVQLLESGGGLVQPGGSLRLSCAASGFTFDRRAMGWVRQAPGKGLEWVSSIESDGTRTYYADSVKGRFTISRDNSKNTLYLQMNSLRAEDTAVYYCAKHPGSSYVFDYWGQGTLVTVSS | binds |  | 
7 | B1 |  |  | binding result (human DC-SIGN [3]): binds; binding result (DC-SIGNR): no binding; binding result [4]: binds
8 | B2 |  |  | binding result (LIP1-33): binds
9 | LIP1-30 (other, all other claims print 29) VH: EVQLLESGGGLVQPGGSLRLSCAASGFTFSGYSMAWVRQAPGKGLEWVSQIGPLGVKTYYADSVKGRFTISRDNSKNTLYLQMNSLRAEDTAVYYCAKLTSDAHDFDYWGQGTLVTVSS |  | binds | 
10 | 1-13 (other, human VK domain antibody, tested as phage particles; also called LIP1-13; LIP1-13 phage) VK dAb: DIQMTQSPSSLSASVGDRVTITCRASQGIWQELKWYQQKPGKAPRLLIYRGSSLQSGVPSRFSGSGSGTDFTLTISSLQPEDFATYYCQQSFYPPYTFGQGTKVEIKR | binds |  | 
11 | 1-23 (other, human VK domain antibody, tested as phage particles; also called LIP1-23; LIP1-23 phage) VK dAb: DIQMTQSPSSLSASVGDRVTITCRASQDIWRELRWYQQKPGKAPKLLIYRASNLQSGVPSRLSGSGSGTDFTLTISSLQPEDFATYYCQQTFYPPYTFGQGTKVEIKR | binds |  | 
12 | 1-26 (other, human VH domain antibody, tested as phage particles; also called LIP1-26; LIP1-26 phage) VH dAb: EVQLLESGGGLVQPGGSLRLSCAASGFTFSHYTMSWVRQAPGKGLEWVSSISSTGFKTYYADSVKGRFTISRDNSKNTLYLQMNSLRAEDTAVYYCAKWNPHRSTYFDYWGQGTLVTVSS | binds |  | 

Source: patent US20110257373A1 (published 2011)
